# Laboratory results from patent publication US10155985B2, “Evaluation of eosinophilic esophagitis” (CHILDREN'S HOSPITAL MEDICAL CENTER, priority 2004, dated 2018).
# B1: SERPINB1 (nucleic acid, listed as Homo sapiens)
# DNA: GCTCGGAGCCCGGAGCGTGCCTCGGCGGCCTGTCGGTTTTCACCATGGAGCAGCTGAGCTCAGCAAACACCCGCTTCGCCTTGGACCTGTTCCTGGCGTTGAGTGAGAACAATCCGGCTGGAAACATCTTCATCTCTCCCTTCAGCATTTCATCTGCTATGGCCATGGTTTTTCTGGGGACCAGAGGTAACACGGCAGCACAGCTGTCCAAGACTTTCCATTTCAACACGGTTGAAGAGGTTCATTCAAGATTCCAGAGTCTGAATGCTGATATCAACAAACGTGGAGCGTCTTATATTCTGAAACTTGCTAATAGATTATATGGAGAGAAAACTTACAATTTCCTTCCTGAGTTCTTGGTTTCGACTCAGAAAACATATGGTGCTGACCTGGCCAGTGTGGATTTTCAGCATGCCTCTGAAGATGCAAGGAAGACCATAAACCAGTGGGTCAAAGGACAGACAGAAGGAAAAATTCCGGAACTGTTGGCTTCGGGCATGGTTGATAACATGACCAAACTTGTGCTAGTAAATGCCATCTATTTCAAGGGAAACTGGAAGGATAAATTCATGAAAGAAGCCACGACGAATGCACCATTCAGATTGAATAAGAAAGACAGAAAAACTGTGAAAATGATGTATCAGAAGAAAAAATTTGCATATGGCTACATCGAGGACCTTAAGTGCCGTGTGCTGGAACTGCCTTACCAAGGCGAGGAGCTCAGCATGGTCATCCTGCTGCCGGATGACATTGAGGACGAGTCCACGGGCCTGAAGAAGATTGAGGAACAGTTGACTTTGGAAAAGTTGCATGAGTGGACTAAACCTGAGAATCTCGATTTCATTGAAGTTAATGTCAGCTTGCCCAGGTTCAAACTGGAAGAGAGTTACACTCTCAACTCCGACCTCGCCCGCCTAGGTGTGCAGGATCTCTTTAACAGTAGCAAGGCTGATCTGTCTGGCATGTCAGGAGCCAGAGATATTTTTATATCAAAAATTGTCCACAAGTCATTTGTGGAAGTGAATGAAGAGGGAACAGAGGCGGCAGCTGCCACAGCAGGCATCGCAACTTTCTGCATGTTGATGCCCGAAGAAAATTTCACTGCCGACCATCCATTCCTTTTCTTTATTCGGCATAATTCCTCAGGTAGCATCCTATTCTTGGGGAGATTTTCTTCCCCTTAGAAGAAAGAGACTGTAGCAATACAAAAATCAAGCTTAGTGCTTTATTACCTGAGTTTTTAATAGAGCCAATATGTCTTATATCTTTACCAATAAAACCACTGTCCAGAAAAAAAAAAAAAAAAAAAA
# B2: SEQ_ID_#1002 (nucleic acid, listed as Homo sapiens)
# DNA: CCACCGCCTATCCCAAAACCTATAAGAACCAATGATAATCCCACTACCCTTTGATGACTCTCTTTTTGGACTCAGCCCGCCTGCACCCAGGTGAAATAAACAGCCTCGTTGCTCACACAAAGCCTGTTTGGTGGTCTCTTCACACGGACGCATGAGACATTTGGTGCCGAAGACCCGGGTCAGCGGGACTCCTTCGGGACAGCAGTCCCCTGTCCTCACCTTCACTCCCTGAAGAGATCCACCTACAACCTCAGGTCCGCAGACCAACCAGCCCAAGGAACATCTCACTGATTTTAAATTGGACTCTCTTCACACGGGCGAGTGTGACATTTGGTGCCGAAGACCCAGGACAGGAGGACTCCTTTGGGAGACCGGTCTCCTGTCCTCGCCCTCACTCCGTGAGGAGATCCACCTGCAACCTCAGGTCCTCAGACCAACCAGCCGAAGGAACATCTCACCAATTTCAAATGGGCTTAGCGGCTGAAGACTGATGCTGCCTGGTCGCCTCGGAAGCCCCCTGGACCATCATGGACGCCGAGCTTCGGGTAACTCTCACAGTGGAGGCCTGTTTGGTGACTTTCTTCGCACCGACGTGCGTGACACAATGTTTGCAGAATATGAAGGTGGCTGTCACGTGGTCTGGGCTTCCTGGAGGTTTGAGCTGGGAGCTGAAGCCCCGTAGGAGTTCTGTAAGTCAAAAGGGAAGAGAAGAGCATTCCACGTAGAGAAAAGAATCTGTGCTCCAGGCGCGGTGGCTCACGATTGTAATCTCAGCACTTGGTGTCAGGCCTCTGAGCCCAGGCTAAGCCATTGTATATCCCCCGTGACCTGCATGTATACATCCAGATGGCCTGAAGCAGCTGAAGAACCACAAGAGAAGTGAAAATAGCCAGTTCCTGCCTTAACTGATGTCATTCCACCATTGTGATTTGTTCCTGTCCCACCTTTACTGATCAATTAACTTTGTGACATTTCTTCTCCTGGACAATGAGTCTCATGATCTCCCTACCCAGCACCTTGTGACCCCTGCCCCTGCCCGCAAGAGATAACCATCTTTAACTGTAACTTTCCACTACCTACCTAAATCCTGTAAAAACTGACCCACCCCCTATCTCCCTTTGCTGACTCCTTTTTCGGACTCAGCCCGCCTGCACCCAGGTGATTAAAAAGCTTTATTGTTCACATG
# Tested on: EE transcriptome
# Test: Genome-wide microarray transcript profiling of esophageal biopsies, EE patients vs normal individuals (EE transcriptome)
# Conditions: transcript level in esophageal biopsies of EE patients compared to normal individuals (NL); Affymetrix Human Genome U133 plus 2; p<0.01; >1 up-regulated, <1 down-regulated
# Procedure, shortened: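 Distal esophageal biopsies from EE patients (n=76; >24 eosinophils/hpf, basal hyperplasia) and normal controls (n=13; 0 eosinophils/hpf) profiled on Affymetrix Human Genome U133 plus 2 chips. Expression by absolute call and average difference, global scaling; transcriptome genes defined as p<0.01 (Welch t-test) and ≥1.5-fold change.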
molecule,measurement,value
B1,Fold Change,0.62
B2,Fold Change,0.612
